The record followed here is article PMC6395731.

Common to all, as to experiment: EMSA
For orientation: A gel shift assay detects complexes by their altered migration in electrophoresis.

In data set [1] the test system is XRCC1 219-415 (CDB) (Homo sapiens). The following applies: EMSA: 5 nM DNA, 12 mM Tris pH 8.0, 100 mM NaCl, 20 mM KCl, 3 mM MgCl2, 1 mM EDTA, 0.1% CHAPS, 10 mM 2-mercaptoethanol, 8.5% glycerol, BSA (0.02 mg/mL), room ….
The test system of data set [2] is XRCC1 219-633 (Homo sapiens). The following applies: EMSA: 5 nM DNA, 12 mM Tris pH 8.0, 100 mM NaCl, 20 mM KCl, 3 mM MgCl2, 1 mM EDTA, 0.1% CHAPS, 10 mM 2-mercaptoethanol, 8.5% glycerol, BSA (0.02 mg/mL), room ….
Data set [3] has as its system XRCC1 219-633 P1/3-YFP-NLS (Homo sapiens). The following applies: 2 uM protein; EMSA: 5 nM DNA, 12 mM Tris pH 8.0, 100 mM NaCl, 20 mM KCl, 3 mM MgCl2, 1 mM EDTA, 0.1% CHAPS, 10 mM 2-mercaptoethanol, 8.5% glycerol, BSA (0.02 mg/mL), room ….
Data set [4] has as its system XRCC1 full length (Homo sapiens). The settings on record: EMSA: 5 nM DNA, 12 mM Tris pH 8.0, 100 mM NaCl, 20 mM KCl, 3 mM MgCl2, 1 mM EDTA, 0.1% CHAPS, 10 mM 2-mercaptoethanol, 8.5% glycerol, BSA (0.02 mg/mL), room ….

Usually Kd stands for the concentration at which binding is half-saturated.

As for 39 bp duplex, the Kd in data set [1] came to 670 nM; in data set [2], 700 nM; in data set [4] it was 620 nM. In data set [3], the binding signal (% of wild type) was determined as 6.
